The values below come from US7179646B2, “Gene expression using T cell factor responsive element” (Innovata PLC, priority 2000, dated 2007).

The test system of one series is SW480 cells. As to the kind of experiment: Transient transfection luciferase reporter assay in SW480. It is filed as cell-based, human. How it is done:
(§1) HepG2, SW480 and HeLa were seeded the day before transfection at densities of 2.5×10^5, 1.5×10^5 and 6.0×10^4 cells per 6-well respectively. The next day, a mixture of CL22 peptide ([…] (SEQ ID NO:15) (described in International Patent Application WO 98/35984)) and plasmid DNA (2:1 ratio, μg:μg) was prepared in a final volume of 100 μl in HBS (10 mM Hepes pH 7.4, 150 mM NaCl; Sigma) and incubated at RT for 30–45 min before addition of 0.9 ml of “RAC” solution (0.1% human albumin (BPL, UK), 120 μM chloroquine (Sigma) in RPMI medium (Sigma). The transfection solution was then added to cells after washing them once with PBS and incubated with the cells for 4–5 hours before replacement with 2 ml of fresh complete medium. After two days, cells were washed once with PBS and then incubated for 10 min at RT in 200 μl lysis buffer (10 mM sodium phosphate pH 7.8, 8 mM MgCl2, 1 mM EDTA pH 8.0, 1% Triton X-100 and 15% glycerol). After centrifugation, an aliquot of the supernatant was assayed for luciferase activity with luciferase assay buffer (0.1 mM luciferin, 0.44 mM ATP in lysis buffer) using a luminometer (Lumat LB 9501, Berthold, Germany). Activity was normalised using the protein content of each sample (BCA, Pierce).
On the technique in general: In a reporter assay the amount or activity of a reporter protein is the signal.

The next series concerns 293 and PerC6 cells. Description: LacZ expression in adenovirus helper cell lines. It is filed as cell-based, human. On the procedure:
(§2) Expression of β-galactosidase was measured for quantitative graphical presentation by means of the Galacto-Light system (Tropix Inc, Applied Biosystems, Foster City, Calif., U.S.A.)

Series [1] concerns freshly excised colorectal cancer tissue and attached liver tissue. As to the kind of experiment: Ex vivo transduction of freshly excised colorectal tumour samples, X-gal staining. The arrangement: species or system human. On the procedure: Freshly excised tumour tissue was extensively washed (at least 10 minutes duration) under aseptic conditions with 20 ml of Earl's MEM containing 10% FCS, 150 μg/ml penicillin, 250 μg/ml streptomycin, 10 μg/ml tetracycline, 100 μg/ml amikacin, 150 µg/ml chloramphenicol and 100 μg/ml gentamycin and stored at 4° C. overnight in medium containing 10% FCS. After removal of fat and grossly and suspected necrotic tissue, 2–3 mm^3 samples were prepared and placed individually into wells of a 96-well plate. Samples (in quadruplicate) were incubated in 150 μl of serum-free medium containing, 1.0×10^10 virus particles or in medium alone for 4 h in a CO2 incubator. The medium was then replaced with EMEM containing 10% FCS and the samples incubated for a further 44 h to allow gene expression to proceed. β-galactosidase expression was visualised after fixation of the tumour samples in 2% paraformaldehyde/PBS for 2 h at 4° C. and washing with PBS by overnight incubation in X-gal staining solution at 37° C.

In a further series the test system is HeLa cells. As to the kind of experiment: Transient transfection luciferase reporter assay in HeLa. It is filed as cell-based, human. On the procedure:
as §1

Series [2] has as its system primary human hepatocytes, dermal fibroblasts and endothelial cells. As to the kind of experiment: Beta-galactosidase expression in infected cultured primary human cells. The format is cell-based. The conditions noted are these: 48 h after infection. How it is done: Primary human dermal fibroblasts were isolated from punch biopsy samples from healthy volunteers and maintained as above. HUVEC cells were obtained from Promocell (Heidelberg, Germany) and maintained in Endothelial Growth Medium plus Supplement Mix (Promocell). Primary hepatocytes were maintained in Williams medium with added antibiotics, glutamine, insulin and hydrocortisone.
After washing cells with PBS, cells were fixed in 0.05% glutaraldehyde in PBS for 10 min at RT. Following further washing in PBS, cells were incubated cells the following solution and incubated at 37° C. X-gal solution: 400 μl 500 mM K4Fe(CN)6, 400 μl 500 mM K3Fe(CN)6, 100 μl 2 mM MgCl2, 250 μl 40 mg/ml X-Gal in DMF and 8.85 ml PBS.
as §2

For a further series, the system named is HepG2 cells. As to the kind of experiment: Transient transfection luciferase reporter assay in HepG2. The format is cell-based, human. How it is done:
as §1

B1: TcfC-E1BTATA: Luciferase reporter with TcfC arrangement of 5 Tcf sites and E1BTATA box (nucleic acid)
antisense: TACCAACAGTACCGGAATGCCAAGCTAGCTTTTTAGCTTCCTTAGCTCCTGAAAATCTCGCCAAGCTGATGAATTCGAGCTGGCGCATTATATACCCTCTGATAAAGGTGCATTTAGAGATCAAAGGTATGATCAAAGGACTTGATCAAAGGTGAGATCAAAGGTATTGATCAAAGGACTAGAGCTTACTTAGATCGCAGATCTCGAGCCCGGGCTAGCACGCGTAAGAGCTCGGTACCTATCG
With B1, the “level of reporter gene expression among Tcf-E1BTATA arrangements” value in the series on SW480 cells (SW480, E1BTATA combinations) is “highest level of reporter gene expression”.

B2: 5merTcf-SV40: Artificial promoter of 5 active Tcf sites upstream of the basal SV40 promoter; renamed CTP1 (nucleic acid)
antisense: TTGAGATGCAGATCGCAGATCTGATAAAGGTGCATTTAGAGATCAAAGGTAGGACTCTTGATCAAAGGACTGAATTCCTTGATCAAAGGTGCATTTAGAGATCAAAGGTAGGACTCTTTGATCAAAGGGACTAGTAAGCTTGCTAGCACGCGTAAGAGCTCGGTACC
For B2, the “LacZ expression compared to CMV promoter” value in the series on 293 and PerC6 cells (293 and PerC6, MOI 100, 30 h post-infection) is reported as “significantly lower than that driven by the CMV promoter”. The “fold more active in PerC6 than in 293 cells” value in the series on 293 and PerC6 cells (PerC6 vs 293) was “approximately 3 fold”. Further, in series [1] (5 metastases examined), the “colorectal metastases permissive for high-level expression” value was “all 5 colorectal metastases examined were permissive”. For the same molecule, the “primaries weakly or non-permissive for promoter activity” value in series [1] (of 10 primaries) was determined as 3. In the series on HeLa cells (Example 6), the “luciferase reporter activity in HeLa” value is recorded as “shows a background activity in HeLa cells”. The “luciferase activity compared to SV40 promoter alone” value with HeLa cells (beta-catenin not deregulated) is reported as “not more active than the SV40 promoter alone”. Also, the beta-galactosidase expression result in series [2] is reported as “very low levels of beta-galactosidase expression”. The “activity relative to CMV enhancer/promoter” value in the series on SW480 cells (SW480) is recorded as “about 80%”; in the series on HepG2 cells it was “even more active than CMV”. Also, in the series on SW480 cells (SW480, Example 6), the “luciferase reporter activity in SW480” value is given as “highly active in SW480, here comparable to CMV”. The induction ratio is recorded as 44.2 with SW480 cells (SW480, relative to SV40 promoter set as 1) and 18 in the series with HepG2 cells (relative to SV40 promoter set as 1). Further, the “inducibility in SW480 compared to HeLa” value with SW480 cells (SW480 vs HeLa) is given as 30–60 fold.
